Results published in paper PMC8693972 (Molecular Biology of the Cell, 2021).

Target: T1, fluorescently labeled Qc-SNARE Vam7 (yeast, UniProt P32912 1-316, labeled with a fluorophore distinct from that of Qb)
T1 sequence: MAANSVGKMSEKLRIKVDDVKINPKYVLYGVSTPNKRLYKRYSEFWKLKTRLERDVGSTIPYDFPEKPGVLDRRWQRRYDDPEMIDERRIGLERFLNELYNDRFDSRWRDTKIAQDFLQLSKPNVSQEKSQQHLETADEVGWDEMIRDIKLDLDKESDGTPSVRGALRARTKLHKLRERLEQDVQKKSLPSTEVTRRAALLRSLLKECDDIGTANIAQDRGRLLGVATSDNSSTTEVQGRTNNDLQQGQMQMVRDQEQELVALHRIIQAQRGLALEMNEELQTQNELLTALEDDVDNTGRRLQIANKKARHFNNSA
Assay: FRET or BRET

B1: fluorescent Qb-SNARE domain (cysteine-tagged synthetic SNARE domain of the Qb-SNARE Vti1) (domain or fragment)
chain: HAILQKSGDRLKDASRIANETEGIGSQIMMDLRSQRETLENARQTLFQADSYVDKSIKTLKTM
modifications: also: cysteine tag with fluorophore (Alexa-568), tag not in given chain
fold faster FRET with sQa than without sQa: 100 fold
